Here are results for one substance from PMC5382265, “Macrocycle peptides delineate locked-open inhibition mechanism for microorganism phosphoglycerate mutases” (Nature Communications, 2017).

This experiment concerns the target C. elegans cofactor-independent phosphoglycerate mutase (iPGM) (C. elegans) (UniProt G5EFZ1).

The substance Ce-2S (Ce-2 with Cys14Ser) (peptide) registered an IC50 of inhibition of PGM activity, enzyme-coupled bioluminescent assay of 10 nM.
